Data set [1] addresses T1, α5β1 integrin on the cell surface of 786-0 (Homo sapiens, UniProt P05556+P08648).
T1 construct: endogenous in cells
Description: FACS analysis of cancer cell line with IIA1. Format: binding. To be noted: 786-0 (renal); IIA1 10 μg/ml; background MFI ~5. Here is the method:
(§1) Cells were removed with 5 mM EDTA in Tris-HCl (pH 8.0) and blocked by centrifugation in Hank's balanced salt solution containing 3% heat inactivated FBS, 1% normal goat serum (Sigma) and 1% BSA at 4° C. for 5 minutes. Cells were incubated for 30-60 minutes at 4° C. with the mouse anti-α5β1 antibody, IIA1 (10 μg/ml) in FACS buffer (PBS containing 0.1% BSA). Excess monoclonal antibody was removed by centrifugation and cells were washed two times with FACS buffer prior to resuspending in PE-anti-mouse IgG (H+ L) antibody (Southern Biotech, 1:400 dilution) for 30-60 minutes at 4° C. After washing cells were re-suspended in FACS buffer containing propidium iodide (1 μg/ml). Mean fluorescence intensity (MFI) was measured on a FACSCalibur (Becton Dickinson). Background MFI was ˜5.
On the technique in general: Flow cytometry measures light scatter and fluorescence of single cells or particles in a stream.

Data set [2] addresses T2, α5β1 integrin on the cell surface of A2058 (Homo sapiens, UniProt P05556+P08648).
T2 construct: endogenous in cells
Description: FACS analysis of cancer cell line with IIA1. Format: binding. Particulars: A2058 (melanoma); IIA1 10 μg/ml; background MFI ~5. Here is the method: as §1

Data set [3] has as its target T3, α5β1 integrin on the cell surface of A375 (Homo sapiens, UniProt P05556+P08648).
T3 construct: endogenous in cells
The experiment in a line: FACS analysis of cancer cell line with IIA1. Format: binding. To be noted: A375 (melanoma); IIA1 10 μg/ml; background MFI ~5. Here is the method: as §1

Data set [4] addresses T4, α5β1 integrin on the cell surface of A549 (Homo sapiens, UniProt P05556+P08648).
T4 construct: endogenous in cells
The experiment in a line: FACS analysis of cancer cell line with IIA1. Format: binding. To be noted: A549 (lung); IIA1 10 μg/ml; background MFI ~5. How it is done:
as §1

In data set [5] the target is T5, α5β1 integrin on the cell surface of C8161 (Homo sapiens, UniProt P05556+P08648).
T5 construct: endogenous in cells
Description: FACS analysis of cancer cell line with IIA1. To be noted: C8161 (melanoma); IIA1 10 μg/ml; background MFI ~5. Format: binding. Here is the method: as §1

Data set [6] has as its target T6, α5β1 integrin on the cell surface of CHL-1 (Homo sapiens, UniProt P05556+P08648).
T6 construct: endogenous in cells
Description: FACS analysis of cancer cell line with IIA1. Format: binding. To be noted: CHL-1 (melanoma); IIA1 10 μg/ml; background MFI ~5. Here is the method:
as §1

The target of data set [7] is T7, α5β1 integrin on the cell surface of COLO 357 (Homo sapiens, UniProt P05556+P08648).
T7 construct: endogenous in cells
Description: FACS analysis of cancer cell line with IIA1. Particulars: COLO 357 (pancreas); IIA1 10 μg/ml; background MFI ~5. Format: binding. How it is done:
as §1

Data set [8] has as its target T8, α5β1 integrin on the cell surface of DU145 (Homo sapiens, UniProt P05556+P08648).
T8 construct: endogenous in cells
The experiment in a line: FACS analysis of cancer cell line with IIA1. To be noted: DU145 (prostate); IIA1 10 μg/ml; background MFI ~5. Format: binding. Here is the method: as §1

Data set [9] concerns the target T9, α5β1 integrin on the cell surface of EKVX (Homo sapiens, UniProt P05556+P08648).
T9 construct: endogenous in cells
Description: FACS analysis of cancer cell line with IIA1. Format: binding. Particulars: EKVX (lung); IIA1 10 μg/ml; background MFI ~5. Here is the method: as §1

The target in data set [10] is T10, α5β1 integrin on the cell surface of ES-2 (Homo sapiens, UniProt P05556+P08648).
T10 construct: endogenous in cells
Description: FACS analysis of cancer cell line with IIA1. Format: binding. To be noted: ES-2 (ovarian); IIA1 10 μg/ml; background MFI ~5. How it is done: as §1

The target of data set [11] is T11, α5β1 integrin on the cell surface of H460 (Homo sapiens, UniProt P05556+P08648).
T11 construct: endogenous in cells
Description: FACS analysis of cancer cell line with IIA1. Particulars: H460 (lung); IIA1 10 μg/ml; background MFI ~5. Format: binding. Here is the method: as §1

For data set [12], the target named is T12, α5β1 integrin on the cell surface of HCT-116 (Homo sapiens, UniProt P05556+P08648).
T12 construct: endogenous in cells
The experiment in a line: FACS analysis of cancer cell line with IIA1. Format: binding. Particulars: HCT-116 (colon); IIA1 10 μg/ml; background MFI ~5. Here is the method:
as §1

The target in data set [13] is T13, α5β1 integrin on the cell surface of HT1080 (Homo sapiens, UniProt P05556+P08648).
T13 construct: endogenous in cells
T13 sequence (P08648 42-894 limits assumed): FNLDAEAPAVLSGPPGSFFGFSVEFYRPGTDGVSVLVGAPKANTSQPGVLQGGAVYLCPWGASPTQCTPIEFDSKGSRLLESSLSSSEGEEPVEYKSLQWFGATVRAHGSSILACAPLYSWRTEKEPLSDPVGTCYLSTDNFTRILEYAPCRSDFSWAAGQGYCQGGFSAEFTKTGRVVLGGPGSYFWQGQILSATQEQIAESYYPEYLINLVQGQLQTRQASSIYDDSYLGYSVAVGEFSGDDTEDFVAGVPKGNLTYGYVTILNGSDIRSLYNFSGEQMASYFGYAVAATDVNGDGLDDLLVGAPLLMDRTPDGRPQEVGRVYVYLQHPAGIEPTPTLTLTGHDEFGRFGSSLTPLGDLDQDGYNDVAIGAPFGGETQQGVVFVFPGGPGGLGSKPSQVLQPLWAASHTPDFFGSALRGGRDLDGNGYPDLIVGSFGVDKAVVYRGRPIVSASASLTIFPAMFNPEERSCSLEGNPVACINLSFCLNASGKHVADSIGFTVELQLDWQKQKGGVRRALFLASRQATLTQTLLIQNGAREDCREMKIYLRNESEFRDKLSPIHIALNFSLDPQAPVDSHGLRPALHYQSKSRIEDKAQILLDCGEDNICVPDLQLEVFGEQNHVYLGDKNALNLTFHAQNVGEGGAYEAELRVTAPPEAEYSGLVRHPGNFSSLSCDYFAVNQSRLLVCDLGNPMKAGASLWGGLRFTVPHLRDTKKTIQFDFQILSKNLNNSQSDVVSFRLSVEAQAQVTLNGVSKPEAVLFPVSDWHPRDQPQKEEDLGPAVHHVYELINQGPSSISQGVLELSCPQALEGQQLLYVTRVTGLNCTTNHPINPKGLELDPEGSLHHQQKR
T13 sequence (P08648 895-1049 limits assumed): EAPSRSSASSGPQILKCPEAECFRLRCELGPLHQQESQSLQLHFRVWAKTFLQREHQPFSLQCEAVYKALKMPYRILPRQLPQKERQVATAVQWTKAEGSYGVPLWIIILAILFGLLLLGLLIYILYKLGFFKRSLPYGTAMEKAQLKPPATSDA
T13 sequence (P05556 21-798): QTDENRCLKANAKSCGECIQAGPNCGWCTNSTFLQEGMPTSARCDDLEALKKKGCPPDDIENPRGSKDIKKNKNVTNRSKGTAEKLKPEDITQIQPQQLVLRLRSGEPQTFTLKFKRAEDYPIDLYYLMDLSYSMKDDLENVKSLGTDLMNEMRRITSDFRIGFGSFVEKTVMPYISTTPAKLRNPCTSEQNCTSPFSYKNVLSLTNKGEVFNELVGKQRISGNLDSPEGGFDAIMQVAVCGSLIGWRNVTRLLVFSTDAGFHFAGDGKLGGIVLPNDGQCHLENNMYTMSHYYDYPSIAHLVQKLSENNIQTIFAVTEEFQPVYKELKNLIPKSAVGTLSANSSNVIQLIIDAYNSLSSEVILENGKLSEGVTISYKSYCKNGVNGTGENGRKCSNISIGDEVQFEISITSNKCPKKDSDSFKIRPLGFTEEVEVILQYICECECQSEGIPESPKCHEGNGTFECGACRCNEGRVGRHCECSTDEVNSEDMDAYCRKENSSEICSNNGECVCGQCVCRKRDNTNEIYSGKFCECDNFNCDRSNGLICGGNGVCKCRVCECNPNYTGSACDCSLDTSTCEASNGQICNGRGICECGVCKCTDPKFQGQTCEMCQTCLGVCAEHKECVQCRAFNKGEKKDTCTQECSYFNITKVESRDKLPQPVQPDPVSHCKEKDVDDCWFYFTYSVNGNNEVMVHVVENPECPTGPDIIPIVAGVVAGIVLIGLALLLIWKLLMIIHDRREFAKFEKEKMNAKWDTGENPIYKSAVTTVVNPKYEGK
The experiment in a line: FACS analysis of cancer cell line with IIA1. Format: binding. Particulars: HT1080 (fibrosarcoma); IIA1 10 μg/ml; background MFI ~5. Here is the method:
as §1

Data set [14] concerns the target T14, α5β1 integrin on the cell surface of HT1376 (Homo sapiens, UniProt P05556+P08648).
T14 construct: endogenous in cells
Description: FACS analysis of cancer cell line with IIA1. Format: binding. To be noted: HT1376 (bladder); IIA1 10 μg/ml; background MFI ~5. How it is done: as §1

Data set [15] has as its target T15, α5β1 integrin on the cell surface of HT144 (Homo sapiens, UniProt P05556+P08648).
T15 construct: endogenous in cells
The experiment in a line: FACS analysis of cancer cell line with IIA1. To be noted: HT144 (melanoma); IIA1 10 μg/ml; background MFI ~5. Format: binding. How it is done: as §1

Data set [16] addresses T16, α5β1 integrin on the cell surface of LOX (Homo sapiens, UniProt P05556+P08648).
T16 construct: endogenous in cells
Description: FACS analysis of cancer cell line with IIA1. Format: binding. To be noted: LOX (melanoma); IIA1 10 μg/ml; background MFI ~5. Here is the method:
as §1

Data set [17] addresses T17, α5β1 integrin on the cell surface of MIA PACA-2 (Homo sapiens, UniProt P05556+P08648).
T17 construct: endogenous in cells
Description: FACS analysis of cancer cell line with IIA1. Format: binding. Particulars: MIA PACA-2 (pancreas); IIA1 10 μg/ml; background MFI ~5. Here is the method:
as §1

The target in data set [18] is T18, α5β1 integrin on the cell surface of NW231 (Homo sapiens, UniProt P05556+P08648).
T18 construct: endogenous in cells
Description: FACS analysis of cancer cell line with IIA1. Particulars: NW231 (breast); IIA1 10 μg/ml; background MFI ~5. Format: binding. How it is done: as §1

For data set [19], the target named is T19, α5β1 integrin on the cell surface of SN12C (Homo sapiens, UniProt P05556+P08648).
T19 construct: endogenous in cells
Description: FACS analysis of cancer cell line with IIA1. Format: binding. Particulars: SN12C (renal); IIA1 10 μg/ml; background MFI ~5. Here is the method: as §1

In data set [20] the target is T20, α5β1 integrin on the cell surface of TK-10 (Homo sapiens, UniProt P05556+P08648).
T20 construct: endogenous in cells
The experiment in a line: FACS analysis of cancer cell line with IIA1. Particulars: TK-10 (renal); IIA1 10 μg/ml; background MFI ~5. Format: binding. Here is the method:
as §1

Data set [21] concerns the target T21, α5β1 integrin on the cell surface of UACC-62 (Homo sapiens, UniProt P05556+P08648).
T21 construct: endogenous in cells
Description: FACS analysis of cancer cell line with IIA1. Format: binding. Particulars: UACC-62 (melanoma); IIA1 10 μg/ml; background MFI ~5. How it is done:
as §1

Data set [22] is described as follows: pharmacokinetic studies in cynomolgus monkeys. Format: in vivo.

Results on 2 molecules are retold here after patent US7662384B2, “Use of anti-α5β1 antibodies to inhibit cancer cell proliferation” (Facet Biotech Corporation, priority 2004, dated 2010).

T9 sequence (P08648 42-1049): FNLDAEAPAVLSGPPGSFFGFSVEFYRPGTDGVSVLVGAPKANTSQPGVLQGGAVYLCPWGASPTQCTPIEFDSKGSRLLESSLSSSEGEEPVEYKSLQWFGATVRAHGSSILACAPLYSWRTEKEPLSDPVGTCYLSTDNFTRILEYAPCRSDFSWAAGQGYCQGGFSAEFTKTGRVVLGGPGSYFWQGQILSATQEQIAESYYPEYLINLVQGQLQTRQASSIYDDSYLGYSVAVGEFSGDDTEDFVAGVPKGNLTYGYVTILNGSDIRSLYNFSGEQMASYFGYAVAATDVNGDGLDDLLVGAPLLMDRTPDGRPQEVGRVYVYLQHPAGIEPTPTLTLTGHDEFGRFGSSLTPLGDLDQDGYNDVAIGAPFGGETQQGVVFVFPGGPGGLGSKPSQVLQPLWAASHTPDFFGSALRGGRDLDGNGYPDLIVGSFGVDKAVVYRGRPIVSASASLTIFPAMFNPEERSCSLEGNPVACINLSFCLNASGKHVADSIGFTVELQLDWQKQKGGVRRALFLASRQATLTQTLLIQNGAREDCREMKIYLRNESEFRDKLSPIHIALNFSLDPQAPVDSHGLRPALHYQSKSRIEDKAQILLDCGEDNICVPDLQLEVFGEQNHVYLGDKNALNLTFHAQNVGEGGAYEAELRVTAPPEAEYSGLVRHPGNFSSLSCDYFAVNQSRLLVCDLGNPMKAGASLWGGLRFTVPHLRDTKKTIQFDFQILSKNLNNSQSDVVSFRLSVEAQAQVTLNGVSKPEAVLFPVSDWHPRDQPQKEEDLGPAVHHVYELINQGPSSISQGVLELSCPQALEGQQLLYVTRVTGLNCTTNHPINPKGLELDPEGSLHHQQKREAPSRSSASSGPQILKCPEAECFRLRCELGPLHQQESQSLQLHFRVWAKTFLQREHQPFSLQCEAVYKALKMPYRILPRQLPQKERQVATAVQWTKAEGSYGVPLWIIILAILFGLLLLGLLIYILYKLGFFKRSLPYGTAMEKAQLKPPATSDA
T9 sequence (P08648 895-1049 limits assumed): as the sequence (P08648 895-1049 limits assumed) above
T9 sequence (P05556 21-798): as the sequence (P05556 21-798) above

B1: IIA1: parent mouse IgG1 class anti-α5β1 antibody shown to inhibit α5β1 integrin binding to fibronectin (antibody, V domains shown)
VH: MAVLGLLLCLVTFPSCVLSQVQLKESGPGLVAPSQSLSITCTISGFSLTDYGVHWVRQPPGKGLEWLVVIWSDGSSTYNSALKSRMTIRKDNSKSQVFLIMNSLQTDDSAMYYCARHGTYYGMTTTGDALDYWGQGTSVTVSS
VL: MDFQVQIFSFLLISASVIMSRGQIVLTQSPAIMSASLGERVTMTCTASSSVSSNYLHWYQQKPGSAPNLWIYSTSNLASGVPARFSGSGSGTSYSLTISSMEAEDAATYYCHQYLRSPPTFGGGTKLEIK
modifications: mus muscalus
As for B1, the “α5β1 Surface Expression (MFI)” value turned out to be 144.4 MFI in data set [1]; 36.2 MFI in data set [2]; 156.1 MFI in [3]; 71.41 MFI in data set [4]; 122 MFI in [5]; 6.8 MFI in data set [6]. Moreover, the “α5β1 Surface Expression (MFI)” value in [7] stood at 7.8 MFI; in data set [8], 87.5 MFI; in data set [9], 36.7 MFI; in data set [10], 132.8 MFI; in [11] it was 87.5 MFI; in [12], 42.5 MFI. Moreover, the “α5β1 Surface Expression (MFI)” value in data set [13] is on record as 421.7 MFI; in [14] it was 111.9 MFI; in data set [15], 102.1 MFI; in data set [16] it was 261.6 MFI; in data set [17], 61.9 MFI; in [18], 132.2 MFI. For the same molecule, the “α5β1 Surface Expression (MFI)” value in [19] is 129.1 MFI; in data set [20] it was 36.6 MFI; in [21] it was 88.5 MFI.

B2: M200: chimeric IgG4 anti-α5β1 antibody derived from IIA1; generic name volociximab (antibody, V domains shown)
VH: MAVLGLLLCLVTFPSCVLSQVQLKESGPGLVAPSQSLSITCTISGFSLTDYGVHWVRQPPGKGLEWLVVIWSDGSSTYNSALKSRMTIRKDNSKSQVFLIMNSLQTDDSAMYYCARHGTYYGMTTTGDALDYWGQGTSVTVSS
VL: MDFQVQIFSFLLISASVIMSRGQIVLTQSPAIMSASLGERVTMTCTASSSVSSNYLHWYQQKPGSAPNLWIYSTSNLASGVPARFSGSGSGTSYSLTISSMEAEDAATYYCHQYLRSPPTFGGGTKLEIKDMSVDMSV
modifications: chimeric antibody
notes: chimeric IgG4 anti-α5β1 antibody derived from IIA1; generic name volociximab
Take B2: in data set [22] (50 mg/kg after 4 weekly doses), the “mean peak level (serum)” value stood at 1862 µg/mL and the “range of peak level (serum)” value was in the range of 1000 to 2606 µg/mL. Besides, the toxicity result in [22] (at peak serum concentrations after 50 mg/kg, 4 weekly doses) is “no toxicity”.
